T1: PARD3B_1, Q8TEW8
T1 sequence (Q8TEW8 196-299, limits assumed, looked up): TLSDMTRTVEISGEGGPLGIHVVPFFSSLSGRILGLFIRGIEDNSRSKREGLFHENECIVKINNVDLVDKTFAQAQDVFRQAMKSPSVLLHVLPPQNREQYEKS

T2: DLG3_1, Q92796
T2 sequence (Q92796 125-227, limits assumed, looked up): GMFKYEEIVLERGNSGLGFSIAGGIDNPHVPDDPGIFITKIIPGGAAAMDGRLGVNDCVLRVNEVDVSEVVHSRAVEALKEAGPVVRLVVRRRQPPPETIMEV

T3: SIPA1L2, Q9P2F8
T3 sequence (Q9P2F8 945-1036, limits assumed, looked up): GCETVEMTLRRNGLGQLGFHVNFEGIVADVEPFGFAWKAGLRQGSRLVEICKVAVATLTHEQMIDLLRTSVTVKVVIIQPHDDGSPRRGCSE

T4: LNX2_2, Q8N448
T4 sequence (Q8N448 334-432, limits assumed, looked up): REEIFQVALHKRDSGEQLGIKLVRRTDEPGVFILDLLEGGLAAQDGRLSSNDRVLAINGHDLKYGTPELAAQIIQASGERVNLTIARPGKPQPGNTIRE

T5: DFNB31_3, Q9P202
T5 sequence (Q9P202 811-907, limits assumed, looked up): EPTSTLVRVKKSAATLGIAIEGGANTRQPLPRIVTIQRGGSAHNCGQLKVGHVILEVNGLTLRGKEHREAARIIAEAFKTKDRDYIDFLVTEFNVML

T6: GRIP1_7, Q9Y3R0
T6 sequence (Q9Y3R0 999-1096, limits assumed, looked up): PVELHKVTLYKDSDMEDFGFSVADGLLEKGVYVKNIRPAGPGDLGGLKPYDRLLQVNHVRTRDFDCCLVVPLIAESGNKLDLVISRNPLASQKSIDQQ

T7: GRIP1_4, Q9Y3R0
T7 sequence (Q9Y3R0 467-571, limits assumed, looked up): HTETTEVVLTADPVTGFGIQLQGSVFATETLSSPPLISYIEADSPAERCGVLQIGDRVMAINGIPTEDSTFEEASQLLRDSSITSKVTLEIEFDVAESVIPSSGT

T8: LRRC7, Q96NW7
T8 sequence (Q96NW7 1440-1537, limits assumed, looked up): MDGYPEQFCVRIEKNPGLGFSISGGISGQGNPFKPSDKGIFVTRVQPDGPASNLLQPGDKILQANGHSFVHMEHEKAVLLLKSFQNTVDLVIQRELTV

T9: MPDZ_10, O75970
T9 sequence (O75970 1624-1722, limits assumed, looked up): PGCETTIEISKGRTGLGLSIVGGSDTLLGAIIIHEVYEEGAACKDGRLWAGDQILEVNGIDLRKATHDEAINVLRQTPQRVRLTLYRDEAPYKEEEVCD

T10: PCLO, Q9Y6V0
T10 sequence (Q9Y6V0 4491-4600, limits assumed, looked up): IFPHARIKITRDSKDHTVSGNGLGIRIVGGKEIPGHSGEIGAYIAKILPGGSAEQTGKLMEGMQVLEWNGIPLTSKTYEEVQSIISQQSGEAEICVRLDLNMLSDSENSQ

T11: TIAM2, Q8IVF5
T11 sequence (Q8IVF5 885-986, limits assumed, looked up): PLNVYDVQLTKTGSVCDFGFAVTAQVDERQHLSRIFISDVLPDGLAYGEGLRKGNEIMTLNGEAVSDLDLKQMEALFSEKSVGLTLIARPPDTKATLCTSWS

B1: PKN2, Q16513 (peptide)
chain: RDFDYIADWC

target: SCRIB_2, Q14160; assay: holdup assay; parameters: key: below the threshold = too weak to quantify, mostly under pKd 3.1 to 4; conditions: plain residues with an end cap or a label only (N-terminal biotin on a linker: ado-ado)
Sequence (Q14160 857-960): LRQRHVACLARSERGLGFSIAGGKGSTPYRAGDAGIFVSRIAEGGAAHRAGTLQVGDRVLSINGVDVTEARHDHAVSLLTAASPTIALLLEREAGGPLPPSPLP

pKd	Binder
below the threshold	B1

target: DLG2_2, Q15700; assay: holdup assay; parameters: key: below the threshold = too weak to quantify, mostly under pKd 3.1 to 4; conditions: plain residues with an end cap or a label only (N-terminal biotin on a linker: ado-ado)
Sequence (Q15700 189-283): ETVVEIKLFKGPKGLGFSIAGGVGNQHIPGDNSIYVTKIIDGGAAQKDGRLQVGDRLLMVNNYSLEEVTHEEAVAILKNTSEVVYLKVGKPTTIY

pKd	Binder
below the threshold	B1

target: AHNAK1, Q09666; assay: holdup assay; parameters: key: below the threshold = too weak to quantify, mostly under pKd 3.1 to 4; conditions: plain residues with an end cap or a label only (N-terminal biotin on a linker: ado-ado)
Sequence (Q09666 4-100): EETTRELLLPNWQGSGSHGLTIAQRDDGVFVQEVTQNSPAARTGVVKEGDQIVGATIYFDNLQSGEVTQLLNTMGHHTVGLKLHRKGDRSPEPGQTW

pKd	Binder
below the threshold	B1

target: Inadl_1, Q8NI35; assay: holdup assay; parameters: key: below the threshold = too weak to quantify, mostly under pKd 3.1 to 4; conditions: plain residues with an end cap or a label only (N-terminal biotin on a linker: ado-ado)
Sequence (Q8NI35 113-229): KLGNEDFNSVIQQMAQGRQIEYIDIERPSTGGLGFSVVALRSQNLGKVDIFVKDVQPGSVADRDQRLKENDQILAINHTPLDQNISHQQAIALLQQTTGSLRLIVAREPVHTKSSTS

pKd	Binder
below the threshold	B1

target: NOS1, P29475; assay: holdup assay; parameters: key: below the threshold = too weak to quantify, mostly under pKd 3.1 to 4; conditions: plain residues with an end cap or a label only (N-terminal biotin on a linker: ado-ado)
Sequence (P29475 9-101): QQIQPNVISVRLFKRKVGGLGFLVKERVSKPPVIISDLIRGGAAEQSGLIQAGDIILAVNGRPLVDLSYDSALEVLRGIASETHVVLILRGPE

pKd	Binder
4.12	B1

target: T1, PARD3B_1, Q8TEW8; assay: holdup assay; parameters: key: below the threshold = too weak to quantify, mostly under pKd 3.1 to 4; conditions: plain residues with an end cap or a label only (N-terminal biotin on a linker: ado-ado)

pKd	Binder
3.54	B1

target: T2, DLG3_1, Q92796; assay: holdup assay; parameters: key: below the threshold = too weak to quantify, mostly under pKd 3.1 to 4; conditions: plain residues with an end cap or a label only (N-terminal biotin on a linker: ado-ado)

pKd	Binder
below the threshold	B1

target: T3, SIPA1L2, Q9P2F8; assay: holdup assay; parameters: key: below the threshold = too weak to quantify, mostly under pKd 3.1 to 4; conditions: plain residues with an end cap or a label only (N-terminal biotin on a linker: ado-ado)

pKd	Binder
below the threshold	B1

target: PDLIM1, O00151; assay: holdup assay; parameters: key: below the threshold = too weak to quantify, mostly under pKd 3.1 to 4; conditions: plain residues with an end cap or a label only (N-terminal biotin on a linker: ado-ado)
Sequence (O00151 1-87): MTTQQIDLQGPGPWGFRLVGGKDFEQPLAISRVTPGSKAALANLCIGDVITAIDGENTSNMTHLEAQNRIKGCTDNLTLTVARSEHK

pKd	Binder
below the threshold	B1

target: NHERF4_2, Q86UT5; assay: holdup assay; parameters: key: below the threshold = too weak to quantify, mostly under pKd 3.1 to 4; conditions: plain residues with an end cap or a label only (N-terminal biotin on a linker: ado-ado)
Sequence (Q86UT5 220-308): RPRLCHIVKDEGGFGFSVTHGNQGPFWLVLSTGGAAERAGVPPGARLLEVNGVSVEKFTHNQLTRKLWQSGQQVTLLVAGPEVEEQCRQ

pKd	Binder
below the threshold	B1

target: T4, LNX2_2, Q8N448; assay: holdup assay; parameters: key: below the threshold = too weak to quantify, mostly under pKd 3.1 to 4; conditions: plain residues with an end cap or a label only (N-terminal biotin on a linker: ado-ado)

pKd	Binder
4.59	B1

target: DLG1_1, Q12959; assay: holdup assay; parameters: key: below the threshold = too weak to quantify, mostly under pKd 3.1 to 4; conditions: plain residues with an end cap or a label only (N-terminal biotin on a linker: ado-ado)

pKd	Binder
below the threshold	B1

target: T5, DFNB31_3, Q9P202; assay: holdup assay; parameters: key: below the threshold = too weak to quantify, mostly under pKd 3.1 to 4; conditions: plain residues with an end cap or a label only (N-terminal biotin on a linker: ado-ado)

pKd	Binder
below the threshold	B1

target: MAGI2_3, Q86UL8; assay: holdup assay; parameters: key: below the threshold = too weak to quantify, mostly under pKd 3.1 to 4; conditions: plain residues with an end cap or a label only (N-terminal biotin on a linker: ado-ado)
Sequence (Q86UL8 600-682): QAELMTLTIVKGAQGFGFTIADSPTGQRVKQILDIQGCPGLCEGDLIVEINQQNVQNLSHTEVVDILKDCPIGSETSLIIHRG

pKd	Binder
below the threshold	B1

target: SCRIB_3, Q14160; assay: holdup assay; parameters: key: below the threshold = too weak to quantify, mostly under pKd 3.1 to 4; conditions: plain residues with an end cap or a label only (N-terminal biotin on a linker: ado-ado)
Sequence (Q14160 999-1103): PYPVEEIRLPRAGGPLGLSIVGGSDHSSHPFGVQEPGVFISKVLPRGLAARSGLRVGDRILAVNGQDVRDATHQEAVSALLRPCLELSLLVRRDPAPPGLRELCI

pKd	Binder
3.49	B1

target: T6, GRIP1_7, Q9Y3R0; assay: holdup assay; parameters: key: below the threshold = too weak to quantify, mostly under pKd 3.1 to 4; conditions: plain residues with an end cap or a label only (N-terminal biotin on a linker: ado-ado)

pKd	Binder
below the threshold	B1

target: T7, GRIP1_4, Q9Y3R0; assay: holdup assay; parameters: key: below the threshold = too weak to quantify, mostly under pKd 3.1 to 4; conditions: plain residues with an end cap or a label only (N-terminal biotin on a linker: ado-ado)

pKd	Binder
below the threshold	B1

target: GRID2IP_1, A4D2P6; assay: holdup assay; parameters: key: below the threshold = too weak to quantify, mostly under pKd 3.1 to 4; conditions: plain residues with an end cap or a label only (N-terminal biotin on a linker: ado-ado)
Sequence (A4D2P6 1-87): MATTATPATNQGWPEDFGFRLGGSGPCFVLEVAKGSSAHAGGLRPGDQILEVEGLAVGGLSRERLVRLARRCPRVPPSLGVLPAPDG

pKd	Binder
below the threshold	B1

target: T8, LRRC7, Q96NW7; assay: holdup assay; parameters: key: below the threshold = too weak to quantify, mostly under pKd 3.1 to 4; conditions: plain residues with an end cap or a label only (N-terminal biotin on a linker: ado-ado)

pKd	Binder
below the threshold	B1

target: LAP2, Q96RT1; assay: holdup assay; parameters: key: below the threshold = too weak to quantify, mostly under pKd 3.1 to 4; conditions: plain residues with an end cap or a label only (N-terminal biotin on a linker: ado-ado)
Sequence (Q96RT1 other isoform, or with tags, fused parts or gaps): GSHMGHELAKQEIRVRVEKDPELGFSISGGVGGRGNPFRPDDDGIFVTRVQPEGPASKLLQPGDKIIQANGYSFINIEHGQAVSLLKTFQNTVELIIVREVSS

pKd	Binder
4.01	B1

target: T9, MPDZ_10, O75970; assay: holdup assay; parameters: key: below the threshold = too weak to quantify, mostly under pKd 3.1 to 4; conditions: plain residues with an end cap or a label only (N-terminal biotin on a linker: ado-ado)

pKd	Binder
3.87	B1

target: TJP1_2, Q07157; assay: holdup assay; parameters: key: below the threshold = too weak to quantify, mostly under pKd 3.1 to 4; conditions: plain residues with an end cap or a label only (N-terminal biotin on a linker: ado-ado)
Sequence (Q07157 181-274): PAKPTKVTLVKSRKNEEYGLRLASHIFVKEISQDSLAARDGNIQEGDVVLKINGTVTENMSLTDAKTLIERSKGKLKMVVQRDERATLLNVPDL

pKd	Binder
3.6	B1

target: DLG4_2, P78352; assay: holdup assay; parameters: key: below the threshold = too weak to quantify, mostly under pKd 3.1 to 4; conditions: plain residues with an end cap or a label only (N-terminal biotin on a linker: ado-ado)
Sequence (P78352 155-259): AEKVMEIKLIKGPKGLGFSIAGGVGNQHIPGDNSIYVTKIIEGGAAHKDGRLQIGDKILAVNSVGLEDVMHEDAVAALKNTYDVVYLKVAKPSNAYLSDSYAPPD

pKd	Binder
below the threshold	B1

target: T10, PCLO, Q9Y6V0; assay: holdup assay; parameters: key: below the threshold = too weak to quantify, mostly under pKd 3.1 to 4; conditions: plain residues with an end cap or a label only (N-terminal biotin on a linker: ado-ado)

pKd	Binder
below the threshold	B1

target: T11, TIAM2, Q8IVF5; assay: holdup assay; parameters: key: below the threshold = too weak to quantify, mostly under pKd 3.1 to 4; conditions: plain residues with an end cap or a label only (N-terminal biotin on a linker: ado-ado)

pKd	Binder
4.19	B1

target: HTRA1, Q92743; assay: holdup assay; parameters: key: below the threshold = too weak to quantify, mostly under pKd 3.1 to 4; conditions: plain residues with an end cap or a label only (N-terminal biotin on a linker: ado-ado)
Sequence (Q92743 360-477): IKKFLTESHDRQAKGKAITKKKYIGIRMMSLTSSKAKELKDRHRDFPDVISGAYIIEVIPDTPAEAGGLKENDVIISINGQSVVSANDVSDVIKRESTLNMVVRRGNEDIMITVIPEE

pKd	Binder
4.72	B1

target: MAGI2_6, Q86UL8; assay: holdup assay; parameters: key: below the threshold = too weak to quantify, mostly under pKd 3.1 to 4; conditions: plain residues with an end cap or a label only (N-terminal biotin on a linker: ado-ado)
Sequence (Q86UL8 1141-1229): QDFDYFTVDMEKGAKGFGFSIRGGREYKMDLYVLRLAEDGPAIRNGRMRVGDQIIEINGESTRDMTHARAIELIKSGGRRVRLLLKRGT

pKd	Binder
3.77	B1

Source: article PMC9482650, “Quantitative fragmentomics allow affinity mapping of interactomes” (Nature Communications, 2022)
